One may read the Kd as the concentration at which binding is half-saturated. For orientation: koff means a measure of how fast the partners let go of each other. The kon is the second-order rate constant of association.

Experiment [1] addresses T1, IsaA oligopeptide SEQ ID NO: 28 (Staphylococcus aureus).
T1 sequence (peptide): GTTWSWSYEAANGQT
Description: peptide array on glass slide, fluorescent secondary antibody.

Experiment [2] concerns the target T2, IsaA oligopeptide SEQ ID NO: 36 (Staphylococcus aureus).
T2 sequence (peptide): GSDVQSVSYNAQSSN
The description is as above.

For experiment [3], the target named is T3, IsaA oligopeptide SEQ ID NO: 13 (Staphylococcus aureus).
T3 sequence (peptide): TGYAAGTGHQAHAAE
The description is as above.

The target in experiment [4] is T4, IsaA oligopeptide SEQ ID NO: 31 (Staphylococcus aureus).
T4 sequence (peptide): GQTAGFSNVAGADYT
The description is as above.

Experiment [5] concerns the target T5, IsaA oligopeptide SEQ ID NO: 60 (Staphylococcus aureus).
T5 sequence (peptide): GWGPTNTVDQQINAA
The description is as above.

The target in experiment [6] is T6, IsaA oligopeptide SEQ ID NO: 29 (Staphylococcus aureus).
T6 sequence (peptide): SWSYEAANGQTAGFS
Described as above.

The target in experiment [7] is IsaA oligopeptide SEQ ID NO: 40 (Staphylococcus aureus). The description is as above.
The target in experiment [8] is T7, IsaA oligopeptide SEQ ID NO: 30 (Staphylococcus aureus).
T7 sequence (peptide): EAANGQTAGFSNVAG
Described as above.

Experiment [9] addresses T8, IsaA oligopeptide SEQ ID NO: 16 (Staphylococcus aureus).
T8 sequence (peptide): AAEVNVDQAHLVDLA
The experiment is described as above.

In experiment [10] the target is T9, IsaA oligopeptide SEQ ID NO: 14 (Staphylococcus aureus).
T9 sequence (peptide): AGTGHQAHAAEVNVD
Described as above.

The target of experiment [11] is T10, recombinant IsaA protein of Staphylococcus aureus (29 kDa immunodominant antigen IsaA) (Staphylococcus aureus, UniProt Q2FV52 30-233, limits assumed).
T10 construct: Coated as rIsaA in the ELISA; In the first SPR experiment it was N-biotinylated with sulfo-NHS-LC-biotin (mostly at a single site) and immobilised on streptavidin; In the second SPR experiment it was the analyte in solution; also called rIsaA; 29 kDa IsaA antigen
T10 sequence (looked up): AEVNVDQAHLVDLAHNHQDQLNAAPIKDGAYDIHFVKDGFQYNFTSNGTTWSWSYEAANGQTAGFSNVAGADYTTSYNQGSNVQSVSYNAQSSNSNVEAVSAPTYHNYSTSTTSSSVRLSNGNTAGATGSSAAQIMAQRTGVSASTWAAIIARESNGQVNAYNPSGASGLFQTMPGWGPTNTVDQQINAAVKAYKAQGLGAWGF
Description: SPR (BIACORE 2000), antibody captured on anti-mouse Fc surface, IsaA as analyte, 1:1 Langmuir fit. (SPR reads the build-up and loss of mass on a sensor chip optically.)
Description: A blank anti mouse Fc surface was used as control surface for monitoring unspecific binding and performing reference subtraction. Interaction analyses were performed using HBS-EP buffer (10 mM HEPES pH 7.4, 150 mM NaCl, 3 mM EDTA, 0.005% Tween 20). Sensorgrams were recorded at a flow rate of 30 μl/min at 25° C. Association and dissociation times were set to 3 and 15 min, respectively.
The anti-Fc capturing surfaces were regenerated after each cycle using short pulses of 10 mM glycine pH 1.7.
Affinities and rate constants for association (kₒₙ) and for dissociation (koff) were calculated using the BIAevaluation software 4.0.1 fitting the obtained sensorgrams to a 1:1 Langmuir binding model.

In experiment [12] the target is T11, IsaA oligopeptide SEQ ID NO: 59 (Staphylococcus aureus).
T11 construct: Synthetic 15-mer of IsaA, spotted on a glass slide
T11 peptide: QTMPGWGPTNTVDQQ
Description: peptide array on glass slide, fluorescent secondary antibody.
Description: (§1) Each oligopeptide was immobilized on a small spot on a glass side. Binding of the monoclonal antibodies secreted by the hybridoma cell line DSM ACC2987 and of control antibodies to these spots was examined upon incubation with these antibodies by binding of fluorescence labeled secondary antibodies and detecting fluorescence intensities.

For experiment [13], the target named is T12, IsaA oligopeptide SEQ ID NO: 23 (Staphylococcus aureus).
T12 construct: Synthetic 15-mer of IsaA, spotted on a glass slide
T12 peptide: DGAYDIHFVKDGFQY
The experiment is described as above.
Description: as §1

Experiment [14] deals with T13, IsaA oligopeptide SEQ ID NO: 51 (Staphylococcus aureus).
T13 construct: Synthetic 15-mer of IsaA, spotted on a glass slide
T13 peptide: TGVSASTWAAIIARE
The experiment is described as above.
Description: as §1

Experiment [15] deals with T14, IsaA oligopeptide SEQ ID NO: 54 (Staphylococcus aureus).
T14 construct: Synthetic 15-mer of IsaA, spotted on a glass slide
T14 peptide: ARESNGQVNAYNPSG
The experiment is described as above.
Description: as §1

Experiment [16] concerns the target T15, IsaA oligopeptide SEQ ID NO: 45 (Staphylococcus aureus).
T15 construct: Synthetic 15-mer of IsaA, spotted on a glass slide
T15 peptide: SVRLSNGNTAGATGS
The description is as above.
Description: as §1

Experiment [17] deals with T16, IsaA oligopeptide SEQ ID NO: 57 (Staphylococcus aureus).
T16 construct: Synthetic 15-mer of IsaA, spotted on a glass slide
T16 peptide: PSGASGLFQTMPGWG
Described as above.
Description: as §1

The target in experiment [18] is T17, IsaA oligopeptide SEQ ID NO: 56 (Staphylococcus aureus).
T17 construct: Synthetic 15-mer of IsaA, spotted on a glass slide
T17 peptide: NAYNPSGASGLFQTM
Described as above.
Description: as §1

In experiment [19] the target is T18, IsaA oligopeptide SEQ ID NO: 33 (Staphylococcus aureus).
T18 construct: Synthetic 15-mer of IsaA, spotted on a glass slide
T18 peptide: VAGADYTTSYNQGSD
The experiment is described as above.
Description: as §1

The target in experiment [20] is T19, IsaA oligopeptide SEQ ID NO: 10 (Staphylococcus aureus).
T19 construct: Synthetic 15-mer of IsaA, spotted on a glass slide
T19 peptide: IMASSLAVALGVTGY
The description is as above.
Description: as §1

Experiment [21] concerns the target T20, IsaA oligopeptide SEQ ID NO: 52 (Staphylococcus aureus).
T20 construct: Synthetic 15-mer of IsaA, spotted on a glass slide
T20 peptide: ASTWAAIIARESNGQ
Described as above.
Description: as §1

Experiment [22] concerns the target T21, IsaA oligopeptide SEQ ID NO: 27 (Staphylococcus aureus).
T21 construct: Synthetic 15-mer of IsaA, spotted on a glass slide
T21 peptide: FTSNGTTWSWSYEAA
Described as above.
Description: as §1

Experiment [23] has as its target T22, IsaA oligopeptide SEQ ID NO: 37 (Staphylococcus aureus).
T22 construct: Synthetic 15-mer of IsaA, spotted on a glass slide
T22 peptide: QSVSYNAQSSNSNVE
The description is as above.
Description: as §1

Experiment [24] deals with T23, IsaA oligopeptide SEQ ID NO: 50 (Staphylococcus aureus).
T23 construct: Synthetic 15-mer of IsaA, spotted on a glass slide
T23 peptide: MAQRTGVSASTWAAI
The description is as above.
Description: as §1

Experiment [25] addresses T24, IsaA oligopeptide SEQ ID NO: 62 (Staphylococcus aureus).
T24 construct: Synthetic 15-mer of IsaA, spotted on a glass slide
T24 peptide: DQQINAAVKAYKAQG
The description is as above.
Description: as §1

Experiment [26] deals with T25, IsaA oligopeptide SEQ ID NO: 26 (Staphylococcus aureus).
T25 construct: Synthetic 15-mer of IsaA, spotted on a glass slide
T25 peptide: FQYNFTSNGTTWSWS
The description is as above.
Description: as §1

Experiment [27] has as its target T26, IsaA oligopeptide SEQ ID NO: 25 (Staphylococcus aureus).
T26 construct: Synthetic 15-mer of IsaA, spotted on a glass slide
T26 peptide: VKDGFQYNFTSNGTT
Described as above.
Description: as §1

The target in experiment [28] is T27, IsaA oligopeptide SEQ ID NO: 55 (Staphylococcus aureus).
T27 construct: Synthetic 15-mer of IsaA, spotted on a glass slide
T27 peptide: NGQVNAYNPSGASGL
The description is as above.
Description: as §1

In experiment [29] the target is T28, IsaA oligopeptide SEQ ID NO: 63 (Staphylococcus aureus).
T28 construct: Synthetic 15-mer of IsaA, spotted on a glass slide
T28 peptide: NAAVKAYKAQGLGAW
Described as above.
Description: as §1

Experiment [30] deals with T29, IsaA oligopeptide SEQ ID NO: 38 (Staphylococcus aureus).
T29 construct: Synthetic 15-mer of IsaA, spotted on a glass slide
T29 peptide: YNAQSSNSNVEAVSA
The description is as above.
Description: as §1

Consider “control antibodies (peptide array) (antibody)”, for which the Binding (fluorescence intensity) in [1] is 77.3; in experiment [2], -14.3; in experiment [3] it was 367; in experiment [4], -20; in experiment [5] it was 18.7; in [6], 85.7. The Binding (fluorescence intensity) in [7] is -27; in experiment [8] it was -7; in [9] it was 117; in experiment [10], -35.

B1: monoclonal antibody MAB-UK-66 secreted by hybridoma cell line DSM ACC2987 (antibody, V domains shown)
VH: DVKLVESGGGLVKLGGSLKLSCSASGFTFSNYYMSWVRQTPEKRLELVADINGNGGSTYYPDTVKGRFTISRDNAKNTLYLQMSSLKSEDTALYYCVRRGGYYALDYWGQGTTVTVSS
VL: DVVMTQTPLSLPVSLGDQASISCRSSQSLVHINGNTYLHWYLQKPGQSPKLLIYRVSNRFSGVPDRFSGSGSGTDFTLKISRVEAEDLGVYFCSQSTHVPWTFGGGTKLELKR
notes: Monoclonal mouse antibody from a hybridoma; Detected with anti-mouse IgG; also called antibodies secreted by cell line DSM ACC2987; anti-IsaA MAB
As for B1, the Kd in experiment [11] came to 1.7 nM. For the same molecule, the off-rate (koff) in [11] came to 0.00029 s⁻¹. Further, the kon in experiment [11] amounted to 180000 M⁻¹ s⁻¹. Further, the Binding (fluorescence intensity) was found to be 3170 in [1]; 2740 in experiment [2]; 5750 in experiment [3]; 2940 in [4]; 3070 in experiment [5]; 2490 in experiment [6]. Also, the Binding (fluorescence intensity) came out at 6010 in [7]; 1670 in experiment [8]; 1950 in [9]; 3190 in experiment [10]; 1400 in [12]; 63900 in [13]. For the same molecule, the “Binding (fluorescence intensity)” value in [14] was determined as 139; in [15], 570; in [16] it was 235; in experiment [17] it was 16800; in experiment [18] it was 959; in experiment [19] it was 55500. Further, the “Binding (fluorescence intensity)” value was determined as 228 in experiment [20]; 285 in experiment [21]; 442 in experiment [22]; 139 in experiment [23]; 192 in experiment [24]; 551 in experiment [25]. The “Binding (fluorescence intensity)” value came out at 51800 in [26]; 49300 in [27]; 1030 in experiment [28]; 645 in experiment [29]; 975 in [30].

The record behind these values is US20160109449A1 (JULIUS MAXIMILIANS UNIVERSITAET WUERZBURG, published 2016).
